These results are taken from paper PMC13082787, “A lipoprotein partner for the Escherichia coli outer membrane protein TolC” (eLife, 2026).

“And” between values parts separate entries of the source, which are not always exact repeats. Identical values can stand only once.

For test [1], the target named is T1, Detergent-purified FLAG-tagged TolC (E. coli, UniProt P02930 23-493).
T1 construct: also called TolC-FLAG; source: detergent-purified
T1 sequence (looked up): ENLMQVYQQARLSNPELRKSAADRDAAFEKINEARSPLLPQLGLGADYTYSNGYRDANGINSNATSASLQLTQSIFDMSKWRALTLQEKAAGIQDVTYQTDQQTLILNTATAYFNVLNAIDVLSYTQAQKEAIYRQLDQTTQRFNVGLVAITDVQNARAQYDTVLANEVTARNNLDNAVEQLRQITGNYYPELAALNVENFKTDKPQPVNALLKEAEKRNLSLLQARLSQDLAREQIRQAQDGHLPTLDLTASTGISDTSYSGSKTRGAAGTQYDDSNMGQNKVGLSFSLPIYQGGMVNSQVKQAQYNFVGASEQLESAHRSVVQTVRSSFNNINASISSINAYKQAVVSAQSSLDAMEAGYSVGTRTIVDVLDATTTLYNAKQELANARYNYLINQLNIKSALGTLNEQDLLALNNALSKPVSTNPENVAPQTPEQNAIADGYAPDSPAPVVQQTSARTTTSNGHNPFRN
Briefly: ITC; ITC200, 25°C; 230 µM N-terminally His-tagged soluble YbjP injected into 40 µM TolC; 20 mM HEPES pH 7.5, 200 mM NaCl, 0.03% DDM; single-site model. As to conditions: both partners purified. (Isothermal titration calorimetry measures the heat released or taken up as one component is titrated into another.)

Test [2] has as its target T2, TolC-FLAG (DDM-purified full-length TolC with a C-terminal FLAG-tag) (E. coli, UniProt P02930 23-493).
T2 construct: also called FLAG-tagged TolC; source: DDM-purified TolC-FLAG; not shown: FLAG, C-terminal, kept
T2 sequence (looked up): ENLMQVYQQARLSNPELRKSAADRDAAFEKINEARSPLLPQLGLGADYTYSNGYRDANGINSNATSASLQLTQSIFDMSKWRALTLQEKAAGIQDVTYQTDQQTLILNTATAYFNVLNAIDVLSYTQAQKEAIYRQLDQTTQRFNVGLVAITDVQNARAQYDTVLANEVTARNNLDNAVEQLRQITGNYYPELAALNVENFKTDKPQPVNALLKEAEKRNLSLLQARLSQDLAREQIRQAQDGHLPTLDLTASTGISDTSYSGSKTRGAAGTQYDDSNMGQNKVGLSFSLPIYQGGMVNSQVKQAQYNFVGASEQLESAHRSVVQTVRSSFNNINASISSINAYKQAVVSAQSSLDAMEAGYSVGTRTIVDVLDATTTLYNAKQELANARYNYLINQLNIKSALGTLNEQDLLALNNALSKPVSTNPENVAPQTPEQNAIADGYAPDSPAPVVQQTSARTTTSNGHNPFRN
In words: ITC; N-terminally His-tagged YbjPs at 230 µM injected into 40 µM TolC-FLAG in the cell; 25°C; 20 mM HEPES pH 7.5, 200 mM NaCl, 0.03% (wt/vol) DDM; single-site binding model; two independent measurements. As to conditions: both partners purified.

B1: Soluble YbjP (D28-R171) with an N-terminal His-tag (domain or fragment, E. coli, UniProt P75818 28-171, looked up)
chain: DNGTRSGPCVEGGPDNVAQQFYDYRILHRSNDITALRPYLSDKLATLLSDASRDNNHRELLTNDPFSSRTTLPDSAHVASASTIPNRDARNIPLRVDLKQGDQGWQDEVLMIQEGQCWVIDDVRYLGGSVHATAGTLRQSIENR
notes: also called YbjPs; YbjP_(28-171); not shown: His tag, N-terminal, kept
As for B1, in test [1], the Kd was ~4 µM.

B2: soluble YbjP (YbjPs), residues 28-171, N-terminally His-tagged (domain or fragment, E. coli, UniProt P75818 28-171, looked up)
chain: DNGTRSGPCVEGGPDNVAQQFYDYRILHRSNDITALRPYLSDKLATLLSDASRDNNHRELLTNDPFSSRTTLPDSAHVASASTIPNRDARNIPLRVDLKQGDQGWQDEVLMIQEGQCWVIDDVRYLGGSVHATAGTLRQSIENR
notes: also called YbjP_(28-171); YbjP soluble; source: E. coli BL21 (DE3), purified from the cytoplasm (HisTrap FF, dialysis); not shown: His-tag, N-terminal, kept
Consider B2, for which, in test [2], the Kd is 4.1 µM and 5.9 µM and 5 µM; the “stoichiometry N” value is 0.64 and 0.42 and 0.53.

Broadly, the Kd is a measure of binding affinity in units of concentration. The low end stands for tighter binding, the high end for weaker binding. In general, stoichiometry N refers to the number of molecules, sites or subunits per partner or assembly.
